Positions count from the first letter of the chain named.
B1: H1H685P (antibody, V domains shown)
VH: EVQLVESGGGLVQPGGSLRLSCAASGFTFSSYDIHWVRQATGKGLEWVSAIGPAGDTYYPGSVKGRFTISRENAKNSLYLQMNSLRAGDTAVYYCARGLITFGGLIAPFDYWGQGTLVTVSS
VL: EIVLTQSPGTLSLSPGERATLSCRASQSVSSTYLAWYQQKPGQAPRLLIYGASSRATGIPDRFSGSGSGTDFTLTISRLEPEDFAVYYCQHYDNSQTFGQGTKVEIK
B2: H1H690P (antibody, human IgG1, V domains shown)
VH: EVQLVESGGGLVQPGESLRLSCAASGFTFSSYAMSWVRQGPGKGLEWVSSITGSGDTTYYADSVKGRFTISRDNSKNTLYLHMNSLRAEDTAVYYCAKDFLDYSTYLAFDLWGQGTMVTVSS
VL: EIVLTQSPATLSLSPGERATLSCRASQSVSSYLTWYQQKPGQAPRLLSYDASNRATGIPARFSGSGSGTDFTLTISSLEPEDFAVYYCQQRSNWPLTFGGGTKVEIK
notes: Human IgG1
B3: H1H691P (antibody, human IgG1, V domains shown)
VH: EVQLVESGGGLVQPGRSLRLSCAASGFTFDDYAMHWVRQAPGKGLEWVSGISWNSGDIGYADSVKGRFTISRDNAKNSLYLQMNSLRAQDTALYYCAKAYGDYYYFYGMDVWGQGTTVTVS
VL: B1 VL with T32S, Y50F, G51S, H91Q, Q96L, Q100G
notes: Human IgG1
B4: H1H695P (antibody, human IgG1, V domains shown)
VH: QVQLVESGGGVVQPGRSLRLSCAASGFTFSSYGMHWVRQAPGKGLEWVAVMWYDETNKYYADSVKGRFTISRDNSKNTLYLQMNSLRAEDTAVYYCARYSGYEDYYHGMDVWGQGTTVTVS
VL: EIVMTQSPATPSVSPGERATLSCRASQSISSNLAWYQQKPGQAPRLLIYGASTRATGIPARFSGSGSGTEFTLTISSLQSEDFAVYYCQHYNNWITFGQGTRLEIK
notes: Human IgG1
B5: H1H704P (antibody, V domains shown)
VH: QVQLVESGGDVVQPGRSLRLSCAASGFTFSSYGMHWVRQAPGKGLEWVAIIWYDGSNKYYADSVKGRFTISRDNSKNTLYLQMNSLRVEDTAVYSCARDFSISSRHFDYWGQGTLVTVSS
VL: DIQMTQSPSSLSASVGDRVTITCRASQAINNYLAWFQQKPGKAPKSLIYATSNLQSGVPSQFSGSGSGTDYTLTISSLQPEDFATYYCQQYYIYPITFGQGTRLEIK
notes: Human IgG1
B6: H1M732N (antibody, V domains shown)
VH: EVQLVESGGGLVRPGGSLRLSCAASGFTFTNAWMSWVRQAPGKGLEWIGQIKSKTDGGTIDYAAPVKGRFTVSRDDSENTLFLQMNSLKTEDTAVYYCAGNWNYVDFDYWGQGTLVTVSS
VL: DIQMTQSPSSLSASVGDRVTITCRASQDIRNDLGWYQQKPGKAPKRLIYAASSLQGGVPSRFSGSGSGTEFTLTISSLQPEDFATYYCLQHNSYPFTFGPGTKVDIK
B7: H2M742N (antibody, V domains shown)
VH: DVQLLESGGDLVQPGGSLRLSCEASGFTFRNYVMIWVRQAPGKGLEWVSGISNSGGTTHYTDSVKGRFTISRDNSKNTLYLQINSLRAEDTAVYYCAKGYLDTSLIEGNWFDPWGQGTLVTVSS
VL: NIVMTQSPLSLPVTPGEPASISCRSSQSLLHSNGFNYLNWFLQKPGQSPQLLIYLGSNRASGVPDKFSGSGSGTDFTLNINRVEAEDVGIYFCMQTLQTPLTFGGGTKVEIK
notes: also called H1M742N
B8: H2M743N (antibody, V domains shown)
VH: EVQLLESGGGLVQPGGSLRLSCAASGFTFRKYAMSWVRQAPGKGLEWVSVISVSGGNTYYADSVKGRFTISRDNSKNTLYLQLNSLRAEDTAVYYCAKDLTDIVLMVYVDYWGQGTLVTVSS
VL: DIQMTQSPSSVSASVGDRVTITCRASQDIDRWLAWYQQKPGKAPKLLIYAASSLQSGVPSRFSGSGSGTDFTLTISTLQPEDFATYYCQQANSLPFTFGGGTKVEIK
notes: also called H1M743N
B9: H2M744N (antibody, V domains shown)
VH: QVQLVQSGVEVKKPGASVKVSCKTSGYTFSNNGFSWVRQAPGQGLEWLGWISGYNGNTNYAQKFQGRVTMTTDTSTSTAYMELRTLRSDDTAVYYCARDQDYSNFHWLDPWGQGTLVTVAS
VL: DIQMTQSPSSVSASVGDRVIITCRASQGLSSWLAWYQQKPGTAPKLLIHSASSLQTGVPSRFSGSGSGTEFALTINSLQPEDFGTYYCQQANSFPLTFGGGTRVEIK
notes: also called H1M744N; H1M744
B10: H1M749N (antibody, V domains shown)
VH: QVQLVESGGGVVQPGRSLRLSCAASGFTFSSYGMHWVRQAPGKGLEWVAVIWYDEFNKYYADSVKGRFTISRDNSKNTLYLQMNSLRAEDTAVYYCARERESGYSYGFDYWGQGTLVTVSS
VL: B4 VL with P11L, S26G, I29V, H90Q, I95W, R102K, L103V
notes: also called H2M749N
B11: H2M750N (antibody, V domains shown)
VH: QVKLVESGGGVVQPGRSLRVSCAASGFTFSSYGMHWVRQAPGKGLEWLAIIWYDGDNKYYSDSVKGRFTISRDNSKNTLYLQMNSLRAEDTAEYYCVRDASIASRFLDYWGQGTLVTVSS
VL: DIQMTQSPSSLSASIGDRVTITCRATQDINNYLAWFQQKPGKAPKSLIYATSNLQSGVPSKFSGSGSGTDYTLTISSLQPEDFSTYYCQQYHSYPLTFGGGTKVEIK
notes: also called H1M750N; H1M750

Legend:
[1] = target: T1, Dimeric Mouse Ang-2FD conjugated to human IgG1 (mouse (Mus musculus); human); assay: SPR, captured Ab, 37°C
T1 construct: also called Mouse Ang-2FD-hFc
Procedure: (§1) Each selected antibody or control construct was captured at a flow rate of 40 μL/min for 1 minute on a goat anti-human kappa polyclonal antibody surface created through direct chemical coupling to a BIACORE™ chip to form a captured antibody surface.

[2] = target: T1, Dimeric Mouse Ang-2FD conjugated to …; assay: SPR, captured Ab, RT
Procedure, shortened: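 Antibody captured on amine-coupled goat anti-mouse IgG, anti-human κ or anti-human IgG polyclonal surfaces on a CM5 chip; antigen binding and dissociation followed in real time at room temperature. KD and complex dissociation half-life derived by kinetic analysis.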

[3] = target: T1, Dimeric Mouse Ang-2FD conjugated to …; assay: SPR, captured Ab, 25°C
Procedure: as §1

Mouse Ang-2FD-hFc = target: T2, Mouse Ang-2FD-hFc (mouse (Mus musculus)); assay: blocking ELISA, 16.67 nM antibody, Ang-2FD-hFc to coated hTie-2-mFc
T2 construct: also called dimeric mouse Ang-2FD
Procedure: (§2) The plate was then blocked with PBS (Irvine Scientific, Santa Ana, Calif.) containing 0.5% BSA (Sigma-Aldrich Corp., St. Louis, Mo.) for one hour at room temperature. […] Human, mouse or monkey Ang-2FD protein conjugated to human IgG (Ang-2FD-hFc) were added to final concentrations of 2 nM, 8 nM, or 2 nM respectively and incubated for one hour at room temperature. The antibody/Ang-2FD-Fc mixture was then added to the plate containing hTie-2-mFc and incubated for one hour at room temperature. Detection of Ang-2FD-hFc bound to hTie-2-mFc protein was determined with Horse-Radish Peroxidase (HRP) conjugated to a-human IgG antibody (Jackson Immuno Research Lab, West Grove, Pa.) and developed by standard colorimetric response using tetramethylbenzidine (TMB) substrate (BD Biosciences, San Jose, Calif.). Absorbance was read at OD₄₅₀ for 0.1 sec.

Human Ang-2FD-hFc = target: T3, Human Ang-2FD-hFc (human); assay: as above
T3 construct: also called dimeric human Ang-2FD; human Ang-2FD protein conjugated to human IgG
Procedure: as §2

Monkey Ang-2FD-hFc = target: T4, Monkey Ang-2FD-hFc (monkey (Macca fascicularis)); assay: as above
T4 construct: also called dimeric monkey Ang-2FD
Procedure: as §2

Biotin-hBA2 [4] = target: T5, Biotin-hBA2 (human, biotinylated (sites not given)); assay: blocking ELISA, biotin-hBA2 to hTie-2
T5 construct: hBA2 consists of two dimers; also called biotinylated hBA2; human bow-Ang2

Biotin-hBA2 [5] = target: T5, Biotin-hBA2; assay: blocking ELISA, biotin-hBA2 to hTie-2-His, mean of two experiments
Procedure: as §2
For this experiment, human Tie-2 conjugated to a histidine tag (hTie-2-His; SEQ ID NO:526) was used in a similar fashion to the hTie-2-mFc described above. Antibody concentrations from 5 nM were serially diluted three-fold. […] An average IC₅₀ value for each antibody was calculated based on two separate experiments.

T5 sequence (chain, as listed by the source limits assumed): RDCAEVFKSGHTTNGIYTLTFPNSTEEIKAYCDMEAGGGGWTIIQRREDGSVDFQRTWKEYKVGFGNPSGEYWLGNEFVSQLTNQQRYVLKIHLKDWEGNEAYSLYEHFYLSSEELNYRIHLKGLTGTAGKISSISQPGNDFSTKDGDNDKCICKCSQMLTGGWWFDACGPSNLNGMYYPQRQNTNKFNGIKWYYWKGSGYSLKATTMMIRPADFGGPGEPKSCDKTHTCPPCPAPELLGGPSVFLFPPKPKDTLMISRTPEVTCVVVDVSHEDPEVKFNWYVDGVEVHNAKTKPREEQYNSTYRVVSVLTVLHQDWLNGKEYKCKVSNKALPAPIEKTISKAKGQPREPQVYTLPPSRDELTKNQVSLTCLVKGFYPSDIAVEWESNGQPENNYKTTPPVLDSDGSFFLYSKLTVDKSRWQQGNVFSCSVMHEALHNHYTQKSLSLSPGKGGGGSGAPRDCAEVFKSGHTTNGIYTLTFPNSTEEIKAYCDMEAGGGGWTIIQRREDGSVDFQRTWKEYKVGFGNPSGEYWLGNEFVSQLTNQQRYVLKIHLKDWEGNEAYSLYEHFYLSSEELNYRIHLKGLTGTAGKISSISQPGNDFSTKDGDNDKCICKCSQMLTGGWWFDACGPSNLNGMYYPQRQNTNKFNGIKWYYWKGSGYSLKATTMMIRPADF
T2 sequence (chain, as listed by the source limits assumed): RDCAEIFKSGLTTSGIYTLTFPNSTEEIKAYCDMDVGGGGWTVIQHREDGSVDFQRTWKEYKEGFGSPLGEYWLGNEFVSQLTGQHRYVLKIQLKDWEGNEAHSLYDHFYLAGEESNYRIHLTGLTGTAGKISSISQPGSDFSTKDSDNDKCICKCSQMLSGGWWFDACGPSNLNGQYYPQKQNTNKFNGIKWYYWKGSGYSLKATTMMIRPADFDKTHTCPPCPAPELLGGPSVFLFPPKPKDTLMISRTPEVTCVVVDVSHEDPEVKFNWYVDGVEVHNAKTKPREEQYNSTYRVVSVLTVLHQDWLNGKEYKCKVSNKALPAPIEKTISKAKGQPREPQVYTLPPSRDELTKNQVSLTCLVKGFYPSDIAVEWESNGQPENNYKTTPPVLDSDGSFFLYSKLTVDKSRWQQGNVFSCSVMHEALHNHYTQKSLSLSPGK
T3 sequence (chain, as listed by the source limits assumed): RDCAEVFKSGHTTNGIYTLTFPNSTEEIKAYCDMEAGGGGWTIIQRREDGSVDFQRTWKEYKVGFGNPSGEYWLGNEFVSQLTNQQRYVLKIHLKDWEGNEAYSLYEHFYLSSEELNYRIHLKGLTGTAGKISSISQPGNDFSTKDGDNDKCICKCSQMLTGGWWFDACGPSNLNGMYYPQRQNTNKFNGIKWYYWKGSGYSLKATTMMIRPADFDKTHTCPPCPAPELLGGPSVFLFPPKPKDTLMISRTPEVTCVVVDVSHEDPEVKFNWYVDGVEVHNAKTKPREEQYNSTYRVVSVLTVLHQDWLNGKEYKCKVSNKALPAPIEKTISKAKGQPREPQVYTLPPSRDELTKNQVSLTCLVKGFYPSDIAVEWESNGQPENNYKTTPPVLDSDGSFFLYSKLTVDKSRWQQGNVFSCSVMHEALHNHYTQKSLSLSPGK
T4 sequence (chain, as listed by the source limits assumed): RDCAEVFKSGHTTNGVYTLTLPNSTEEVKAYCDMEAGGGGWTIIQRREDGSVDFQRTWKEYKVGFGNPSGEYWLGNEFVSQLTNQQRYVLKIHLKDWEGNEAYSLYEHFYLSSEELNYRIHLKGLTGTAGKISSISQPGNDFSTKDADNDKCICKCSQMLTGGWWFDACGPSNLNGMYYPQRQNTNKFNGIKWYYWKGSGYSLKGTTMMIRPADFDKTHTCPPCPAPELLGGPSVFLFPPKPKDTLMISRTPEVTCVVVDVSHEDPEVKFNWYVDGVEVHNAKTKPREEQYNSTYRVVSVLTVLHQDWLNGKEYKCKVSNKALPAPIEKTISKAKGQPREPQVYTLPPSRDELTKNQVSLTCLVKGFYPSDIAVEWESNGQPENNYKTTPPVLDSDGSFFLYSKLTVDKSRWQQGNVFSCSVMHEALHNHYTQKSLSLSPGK

Row | Binder | Percent Blocking of Ang-2FD Binding to Tie-2 (Mouse Ang-2FD-hFc) | Percent Blocking of Ang-2FD Binding to Tie-2 (Human Ang-2FD-hFc) | IC50 (Biotin-hBA2 [5]) | also measured
1 | B1 | – | – | – | Kd [1]: 93.9 pM; T1/2 [1]: 1.07 h; Kd [2]: 148 pM; T1/2 [2]: 2.14 h; Kd [3]: 65.1 pM; T1/2 [3]: 3.47 h
2 | B2 | 98% | 97.2% | – | Percent Blocking of Ang-2FD Binding to Tie-2 (Monkey Ang-2FD-hFc): 99.6%; IC50 (Biotin-hBA2 [4]): 17 pM
3 | B3 | 96.7% | 97.4% | – | Percent Blocking of Ang-2FD Binding to Tie-2 (Monkey Ang-2FD-hFc): 99.8%
4 | B4 | 97.6% | 98.4% | – | IC50 (Biotin-hBA2 [4]): 59 pM
5 | B5 | 41.8% | 97% | – | IC50 (Biotin-hBA2 [4]): 56 pM
6 | B6 | – | – | 82.2 pM | –
7 | B7 | – | – | 9.65 pM | –
8 | B8 | – | – | 11 pM | –
9 | B9 | – | – | 11.4 pM | –
10 | B10 | – | – | 6.43 pM | –
11 | B11 | – | – | 8.83 pM | –
